Test results reported in doi:10.1101/2025.03.03.641048 (2025).

Target: IE-3 fragment antigen-binding (Fab) region, recombinant, labelled (labeled with the Blue-NHS labeling kit (chain not told) | labeled with the Blue-NHS labeling kit (chain not told))
Test: MST

Binder | Kd [nM]
TIKVVGGYQVNIRVGDTTTDVRYKDDMYHFFCPAIQ (domain or fragment) [mZP2 T103-Q138 linear epitope fused to maltose-binding protein] | 8.9
rZP2-N1 S113R (domain or fragment) SLPQSENPAFPGTLICDKDEVRVEFSSRFDMEKWNPSLVDTFGNEISSCTYALDLEKFILKFPYETCTIKVIGGYQVNIRVQDTNADVRYKDDVHHFFCPAIQ | 16.3
mouse ZP2 N-terminal ZP-N1 domain (mZP2-N1), His-tagged (domain or fragment) VSLPQSENPAFPGTLICDKDEVRIEFSSRFDMEKWNPSVVDTLGSEILNCTYALDLERFVLKFPYETCTIKVVGGYQVNIRVGDTTTDVRYKDDMYHFFCPAIQ | 0.3
